Sequences and labels used below:
B1: 559B-M0067-G11 (Fab, V domains shown)
VH: EVQLLESGGGLVQPGGSLRLSCAASGFTFSPYEMVWVRQAPGKGLEWVSSIVPSGGWTVYADSVKGRFTISRDNSKNTLYLQMNSLRAEDTAVYYCASPSGRGLAFDIWGQGTMVTVSS
VL: DIQMTQSPGTLSLSPGERATLSCRASQSISSSYLAWYQQKPGQAPRLLIYGASSRATGVPDRFSGSGSGTEFTLTISSLQPEDFATYYCLQQKSYPYTFGQGTKVEIK
B2: 559B-M0004-E08 (Fab, V domains shown)
VH: EVQLLESGGGLVQPGGSLRLSCAASGFTFSMYHMNWVRQAPGKGLEWVSSIYSSGGSTRYADSVKGRFTISRDNSKNTLYLQMNSLRAEDTAVYYCARGVRYGMDVWGQGTTVTVSS
VL: DIQMTQSPSSVSASVGDRVTITCRASQGISSWLAWYQQKPGKAPKLLIYAASSLQSGVPSRFSGSGSGTDFTLTISSLQPEDFATYYCQQANSFPITFGQGTRLEIK
B3: 559B-M0043-C06 (Fab, V domains shown)
VH: EVQLLESGGGLVQPGGSLRLSCAASGFTFSAYAMRWVRQAPGKGLEWVSYISSSGGETMYADSVKGRFTISRDNSKNTLYLQMNSLRAEDTAVYYCANGYGRIDYWGQGTLVTVSS
VL: QSVLTQPASVSGSPGQSITISCTGTSSDIGGYNYVSWYQQHPGKAPKLMIYEVSNRPSGVSNRFSGSKSGNTASLTISGLQAEDEADYYCSSYTSGSTRVFGTGTRVTVL
B4: 559B-M0068-D01 (Fab, V domains shown)
VH: EVQLLESGGGLVQPGGSLRLSCAASGFTFSIYPMSWVRQAPGKGLEWVSGISPSGGKTAYADSVKGRFTISRDNSKNTLYLQMNSLRAEDTAVYYCARGQGRAVRGKLYYYGMDVWGQGTTVTVSS
VL: QSALTQPPSASQTPGQTVTISCSGSSSNIGTNNVNWYQQLPGTAPKLLISSHHRRPSGVPDRFSASKSGTSASLAISGLQSEDEADYYCAAWDDSLNGPVFGGGTKLTVL
B5: 559B-M0035-F05 (Fab, V domains shown)
VH: EVQLLESGGGLVQPGGSLRLSCAASGFTFSHYPMAWVRQAPGKGLEWVSGIVSSGGRTVYADSVKGRFTISRDNSKNTLYLQMNSLRAEDTAVYYCARDPYDFWSEGAFDIWGQGTMVTVSS
VL: QSVLTQPPSASGTPGQRVTISCSGSSSNIGNNFVYWYHQVPGTAPKLLIYKNNQRPSGVPDRFSGSKSAASASLAISGLRSEDEADYYCAAWDNSLSGFYVFGAGTKVTVL
B6: 559B-M0035-H09 (Fab, V domains shown)
VH: EVQLLESGGGLVQPGGSLRLSCAASGFTFSWYGMHWVRQAPGKGLEWVSRIGPSGGPTSYADSVKGRFTISRDNSKNTLYLQMNSLRAEDTAVYYCARGYYGTGRYFQHWGQGTLVTVSS
VL: DIQMTQSPDSLSLSPGDRATLSCRASQSVGSDYLAWYQQKPGQAPRLLIYDASNRATGIPARFSGSGSGTDFTLTISSLEPEDFAVYYCQQRSNWPPTFGGGTKVEIK
B7: 559B-M0039-G07 (Fab, V domains shown)
VH: EVQLLESGGGLVQPGGSLRLSCAASGFTFSRYRMRWVRQAPGKGLEWVSGISPSGGWTYYADSVKGRFTISRDNSKNTLYLQMNSLRAEDTAVYYCTTDNGDYALAHWGQGTLVTVSS
VL: DIQMTQSPSSLSASVGDRVTITCRASQRIINYLNWYQQKPGKAPKLLIYAASSLQSGVPSRFSGSGSGTDFTLTISSLQPEDFATYYCQQSYSAPLTFGGGTRVEIK
B8: 559B-M0003-A08 (Fab, V domains shown)
VH: EVQLLESGGGLVQPGGSLRLSCAASGFTFSAYVMRWVRQAPGKGLEWVSSIGSSGGPTYYADSVKGRFTISRDNSKNTLYLQMNSLRAEDTAVYYCARRGGSGSSHAFDIWGQGTMVTVSS
VL: B7 VL with R28S, I30S, N31S, F83S, A84G, S91Y, Y92N, A94F, R103K
B9: 559B-M0069-C09 (Fab, V domains shown)
VH: EVQLLESGGGLVQPGGSLRLSCAASGFTFSMYDMHWVRQAPGKGLEWVSSISSSGGYTQYADSVKGRFTISRDNSKNTLYLQMNSLRAEDTAMYYCARDRGLIAAAGGFDPWGQGTLVTVSS
VL: DIQMTQSPSSLSASVGDRVTITCRASQSIGIYLNWYQQKPGTAPKLLIYAASSLQSGVPSRFTGSGSGTDFTLTISSLQPDDFATYYCQRTYGRPLTFGGGTKVEIK
B10: 559B-M0054-B11 (Fab, V domains shown)
VH: EVQLLESGGGLVQPGGSLRLSCAASGFTFSYYGMNWVRQAPGKGLEWVSVISPSGGLTVYADSVKGRFTISRDNSKNTLYLQMNSLRAEDTAMYYCATGFAVQHGGGAFDIWGQGTMVTVSS
VL: DIQMTQSPATLSMSPGERATLSCRASQSVTTYLAWYQQKPGQAPRLLIYDASIRATGVPARFSGSGSGTDFTLTISRLEPEDFAVYYCQQRTIWPLTFGGGTKVEIK
B11: 559B-M0065-B10 (Fab, V domains shown)
VH: EVQLLESGGGLVQPGGSLRLSCAASGFTFSKYFMTWVRQAPGKGLEWVSWISSSGGYTNYADSVKGRFTISRDNSKNTLYLQMNSLRAEDTAVYYCARGAYYYDAFDIWGQGTMVTVSS
VL: DIQMTQSPSSLSASVGDRVTITCRASQSIAIFLNWYQQTPGKPPKLLIYGASTLQSGVPSRFSGSGSGADFTLTISNLQLEDFTTYYCQQSYSTLYTFGQGTKLEIK
B12: 559B-M0064-H02 (Fab, V domains shown)
VH: EVQLLESGGGLVQPGGSLRLSCAASGFTFSQYIMGWVRQAPGKGLEWVSSIGSSGVTVYADSVKGRFTISRDNSKNTLYLQMNSLRAEDTAVYYCARGGGVTVLHAFDIWGQGTMVTVSS
VL: QSALTQPASVSGSPGQSITISCTGTSSDVGGYNYVSWYQQHPGKVPKLIIYEGNKRPSGVPDRFSGSKAGNTASLTVSGLQAEDEADYYCTAYGGHSRFYVFGTGTKVTVLG
notes: Purified recombinant Fab; …GQPKANP)
B13: 559B-M0070-H10 (Fab, V domains shown)
VH: EVQLLESGGGLVQPGGSLRLSCAASGFTFSTYGMRWVRQAPGKGLEWVSVISPSGGKTNYADSVKGRFTISRDNSKNTLYLQMNSLRAEDTAVYYCARGRPDYYAMDVWGQGTTVTVSS
VL: QSALTQPPSASGAPGQRVTISCSGSSSNIGSNTVNWYQKLPGTAPKLLIYYNDRRPSGVPDRFSGSKSGNTASLTISGLQAEDEADYYCAAWDDSLSGPVFGGGTKLTVL
notes: also called M070-H10

Numbering of substitutions follows the chain as printed.

For the first assay, the target named is T1, intact high molecular weight kininogen (HMWK) (Homo sapiens, UniProt P01042 19-644).
T1 construct: also called intact HMWK; 1-chain HMWK
T1 sequence: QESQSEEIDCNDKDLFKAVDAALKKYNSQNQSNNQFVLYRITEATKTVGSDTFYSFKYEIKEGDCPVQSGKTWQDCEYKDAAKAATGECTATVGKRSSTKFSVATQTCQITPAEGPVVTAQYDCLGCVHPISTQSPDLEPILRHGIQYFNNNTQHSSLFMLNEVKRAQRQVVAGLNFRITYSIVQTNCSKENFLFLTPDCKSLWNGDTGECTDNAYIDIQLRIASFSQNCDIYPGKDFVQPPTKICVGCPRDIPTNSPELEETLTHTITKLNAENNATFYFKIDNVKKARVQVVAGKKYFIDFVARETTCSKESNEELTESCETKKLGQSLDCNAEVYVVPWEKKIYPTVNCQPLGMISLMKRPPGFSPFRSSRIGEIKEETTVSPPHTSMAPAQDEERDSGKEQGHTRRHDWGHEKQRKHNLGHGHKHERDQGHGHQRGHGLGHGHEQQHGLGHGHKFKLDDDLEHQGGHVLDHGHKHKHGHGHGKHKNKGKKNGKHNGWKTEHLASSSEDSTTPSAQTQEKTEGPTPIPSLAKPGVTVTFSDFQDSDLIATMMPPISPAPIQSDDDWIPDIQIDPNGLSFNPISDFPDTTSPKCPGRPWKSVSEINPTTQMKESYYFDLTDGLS
Kind of assay: ELISA: Fab coated on 96-well plate, LowCross block, biotinylated antigen, streptavidin-HRP; signal over uncoated well. As for the experimental part:
Thirty-six purified Fab clones (see Table 2 below) were assessed for binding to cleaved HWMK, intact HMWK, and LWMK using the immunoassay described in Example 1. Specifically, each of the purified Fab clones was immobilized on 96-well assay plates at a concentration of […]) in a total volume of 100 μL in PBS and incubated overnight at 2-8° C. The assay plates were blocked using LowCross blocking buffer. Biotinylated intact HMWK, biotinylated cleaved HMWK or biotinylated LMWK ([…]) was added to each well in a total volume of 100 μL and incubated for 2 hours prior to washing with a wash buffer. HRP-labeled streptavidin was added to each well at a concentration of 100 ng/mL, and the signal was developed using Ultra TMB Substrate. The signal to noise ratio was calculated using the signal observed upon the addition of the biotinylated protein to an uncoated well. (FIG. 2, panels A and B). Based on the ELISA results, the antibodies can be divided among 5 categories (Table 2).
For the molecule B1, the binding result is reported as “binds”. As for B2, the binding result is reported as “binds”. Same read-out and setting: the result for B3 reads “binds”. The same measure, in the same setting: the result for B4 reads “binds”; that for B5, “binds”; that for B6, “binds”. Same read-out and setting: the result for B7 reads “binds”. For B8, the binding result is “binds”.

With B9, the binding result is recorded as “binds”. On the same count and under the same terms, next, B10: “binds”; B11: “binds”.

For a further assay, the target named is T1, intact high molecular weight kininogen …. Kind of assay: Fab passively immobilized on 384-well plate, biotinylated antigen, streptavidin-HRP. The text has this: A: plots the ratio of the result of a 2-chain HWMK binding assay to a LMWK binding assay on the y-axis compared to the ratio of the result of a 2-chain HMWK binding assay to a 1-chain HMWK binding assay on the x-axis for each antibody (Fab) tested. Recombinant Fab fragments were passively immobilized onto 384-well plates prior to addition of biotinylated 2-chain HMWK, 1-chain HMWK, or LMWK, followed by streptavidin-HRP.
The depleted library was then contacted with biotinylated 2-chain HMWK immobilized on streptavidin coated magnetic beads. The beads were extensively washed with PBS buffer and used to infect E. coli for phage output amplification to complete a round of selection. Three rounds of selection were performed prior to screening individual phage colonies by ELISA with biotinylated 1-chain and 2-chain HMWK immobilized on streptavidin coated plates followed by detection with horse radish peroxidase (HRP) conjugated anti-M13 antibody and absorbance detection due to substrate hydrolysis for 3,3′,5,5′-Tetramethylbenzidine (TMB). […] The specificity of each purified Fab was determined by coating 384 well plates and measuring binding to biotinylated 1-chain HMWK, to biotinylated 2-chain HMWK, or to biotinylated LMWK, followed by detection with streptavidin conjugated to HRP and TMB detection.
In the case of B12, the binding result is “binds”. Same read-out and setting: next, B13: “binds”.

(Values after patent US20210270842A1 (DYAX, published 2021).)
